Assay in all cases: crystal structure; disulfide cross-linked CA hexamers, hanging- or sitting-drop vapour diffusion, data at 100 K, molecular replacement with PDB 3H47
Experiment [1] deals with HIV-1(M-group) CA Q50Y hexamer (A14C, E45C, Q50Y, W184A, M185A) (HIV-1 group M).
The target in experiment [2] is SIVcpz CA hexamer (P14C, E45C, W184A, M185A) (SIVcpzPtt (SIV of central chimpanzees)).
In experiment [3] the target is SIVmac CA hexamer (P13C, E44C, W182A, M183A) (SIVmac (SIV from macaques)).
For experiment [4], the target named is HIV-1(O-group) CA hexamer (A14C, E45C, W185A, M186A) (HIV-1 group O).

In the case of “HIV-1(M-group) CA Q50Y hexamer (A14C, E45C, Q50Y, W184A, M185A) (natural protein)”, the stoichiometry N (commonly the number of molecules, sites or subunits per partner or assembly) in experiment [1] came to 6.
On to “SIVcpz CA hexamer (P14C, E45C, W184A, M185A) (natural protein)”, for which the stoichiometry N in experiment [2] was found to be 6.
With “SIVmac CA hexamer (P13C, E44C, W182A, M183A) (natural protein)”, the stoichiometry N in experiment [3] was found to be 6.
For “HIV-1(O-group) CA hexamer (A14C, E45C, W185A, M186A) (natural protein)”, the stoichiometry N in experiment [4] stood at 6.

For the origin of these results see article PMC9613477.
